According to PMC7261492, “ISCU interacts with NFU1, and ISCU[4Fe-4S] transfers its Fe-S cluster to NFU1 leading to the production of holo-NFU1” (Journal of structural biology, 2020):
Blank lines part the entries; values can stand above or below the molecule they belong to.

Tests used:
[1] = molecular target: human apo-NFU1 (human) (UniProt Q9UMS0); assay: SAXS; apo-NFU1:ISCU complex isolated by SEC, dialysed against HNT buffer, 2-8 mg/mL, 298 K; molecular mass by the Vc approach
[2] = molecular target: human apo-NFU1 (human) (UniProt Q9UMS0); assay: ITC; Nano ITC, 25 °C, HNT buffer; syringe 0.8 mM ISCU, cell (169 μL) 0.03 mM NFU1; 20 injections of 2.5 μL; fitted to a 1:1 binding mode
[3] = molecular target: T1, human ISCU (human), Q9H1K1; assay: SEC; anaerobic; mixture of [U-15N]-apo-NFU1 and ISCU[4Fe-4S] incubated 30 min, HiLoad Superdex 200 PG, HNT buffer, 1 mL/min; fractions analysed by SDS-PAGE; settings: remark: other sources report otherwise
T1 chain: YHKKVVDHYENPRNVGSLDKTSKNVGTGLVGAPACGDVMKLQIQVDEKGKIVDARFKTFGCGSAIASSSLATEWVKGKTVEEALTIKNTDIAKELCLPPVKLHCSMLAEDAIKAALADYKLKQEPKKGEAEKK

[4] = molecular target: the molecule itself; assay: as above

stoichiometry N [1]: 1 | Kd [2]: 1.1 µM
Molecule: human ISCU (from UniProt Q9H1K1 35-167) (natural protein)

stoichiometry N [3]: 2
B1: human ISCU, Q9H1K1 35-167 (natural protein)
chain: T1 chain

B2: human holo-NFU1 (natural protein, UniProt Q9UMS0 10-254, looked up)
chain: GAAAVAAGLRRRFCHMLKNPYTIKKQPLHQFVQRPLFPLPAAFYHPVRYMFIQTQDTPNPNSLKFIPGKPVLETRTMDFPTPAAAFRSPLARQLFRIEGVKSVFFGPDFITVTKENEELDWNLLKPDIYATIMDFFASGLPLVTEETPSGEAGSEEDDEVVAMIKELLDTRIRPTVQEDGGDVIYKGFEDGIVQLKLQGSCTSCPSSIITLKNGIQNMLQFYIPEVEGVEQVMDDESDEKEANSP
modifications: [4Fe-4S] cluster bound by C195 and C198; two NFU1 chains supply the four cysteine ligands of one cluster
notes: NFU1, human, with both the N-terminal domain (NTD) and the C-terminal domain (CTD); Same chain as m2 with the [4Fe-4S] cluster; trimer of cluster-linked dimers (hexamer, 160 kDa); also called NFU1[4Fe-4S]; hexameric holo-NFU1; source: prepared as described earlier (Cai et al., 2016); in the anaerobic SEC formed by adding ISCU[4Fe-4S] to [U-15N]-apo-NFU1
stoichiometry N [4]: 6
